The source of these data is IntAct's records for PubMed 29125462.

B1: RILP-like protein 1 (Homo sapiens), Q5EBL4 (parent)
chain: MEEERGSALAAESALEKNVAELTVMDVYDIASLVGHEFERVIDQHGCEAIARLMPKVVRVLEILEVLVSRHHVAPELDELRLELDRLRLERMDRIEKERKHQKELELVEDVWRGEAQDLLSQIAQLQEENKQLMTNLSHKDVNFSEEEFQKHEGMSERERQVMKKLKEVVDKQRDEIRAKDRELGLKNEDVEALQQQQTRLMKINHDLRHRVTVVEAQGKALIEQKVELEADLQTKEQEMGSLRAELGKLRERLQGEHSQNGEEEPETEPVGEESISDAEKVAMDLKDPNRPRFTLQELRDVLHERNELKSKVFLLQEELAYYKSEEMEEENRIPQPPPIAHPRTSPQPESGIKRLFSFFSRDKKRLANTQRNVHIQESFGQWANTHRDDGYTEQGQEALQHL
B2: RILP-like protein 2 (Homo sapiens), Q969X0 (parent)
chain: MEEPPVREEEEEEGEEDEERDEVGPEGALGKSPFQLTAEDVYDISYLLGRELMALGSDPRVTQLQFKVVRVLEMLEALVNEGSLALEELKMERDHLRKEVEGLRRQSPPASGEVNLGPNKMVVDLTDPNRPRFTLQELRDVLQERNKLKSQLLVVQEELQCYKSGLIPPREGPGGRREKDAVVTSAKNAGRNKEEKTIIKKLFFFRSGKQT

Variants of B1 are the subject of the first test. The following applies: with rab8a_human RAB8A.
On to R293E, for which the “effect of a mutation on the interaction” value is “disrupting interaction strength”.
Still for that read-out and setting: in the case of K310E it was “disrupting interaction strength”; in that of R291E, “disrupting interaction strength”.

The variants in the next test derive from B2. Conditions: with rab8a_human RAB8A.
As to R132E, the “effect of a mutation on the interaction” value is “disrupting interaction strength”.
Take R130E: the “effect of a mutation on the interaction” value is “disrupting interaction strength”.
Turning to K149E, the “effect of a mutation on the interaction” value is recorded as “disrupting interaction strength”.
